In general, EC50 refers to the concentration needed to bring the measured effect to its halfway point. A word on the Kd: it is a measure of binding affinity in units of concentration. What is called koff is the first-order rate constant of dissociation. A word on the kon: it is a measure of how fast the partners come together.

Assay [1] deals with T1, rhesus CD36-His overexpressed on stable F293 cells (rhesus, UniProt P16671 2-472 (human entry)).
T1 construct: Gene segment from Sino Biological; also called F293/rhesusCD36; not shown: His tag
The assay can be described thus: flow cytometry, F293 cells overexpressing rhesus CD36. The text has this: (§1) After washing with FACS buffer (2% FBS in PBS), the cells were stained with anti-human IgG-Alexa Fluor 647 and analyzed by Attune NxT Flow Cytometer (Thermo Scientific).

Assay [2] deals with T2, full-length human CD36-Flag overexpressed on stable F293 cells (human, UniProt P16671 2-472). The assay can be described thus: cell-based or functional assay.
Assay [3] deals with T3, mouse CD36-His overexpressed on stable F293 cells (mouse, UniProt Q08857 1-472).
T3 construct: Gene segment from Sino Biological; also called F293/mCD36; mCD36; not shown: His tag
Briefly: flow cytometry, F293 cells overexpressing mouse CD36.
Description: as §1

In assay [4] the target is T2, full-length human CD36-Flag …. Briefly: flow cytometry, F293 cells overexpressing human CD36.
Description: as §1
(In flow cytometry, cells or beads pass a laser one at a time.)

Assay [5] deals with T4, Recombinant His-tagged human CD36.ECD protein (Sino Biological) (human, UniProt P16671 30-439).
T4 construct: Bought protein; also called hCD36.ECD; hCD36; not shown: His tag
The assay can be described thus: ELISA, coated human CD36.ECD (FIG. 2B). As to the method: ELISA materials and methods: Recombinant His-tagged human CD36.ECD protein or His-tagged mouse CD36.ECD protein (both from Sino Biological) was immobilized on 96 well microtiter plate at a concentration of 1 μg/mL in Coating Solution (SeraCare) overnight at 4° C. The wells were washed with wash solution (0.05% Tween20 in PBS) and blocked with 1% BSA in PBS. Serial dilutions of anti-CD36 antibodies were added to wells. After incubation at 37° C. for 1 h, the wells were washed with wash solution. Peroxidase-conjugated Goat anti-human kappa Light chain antibody (Sigma) was applied to each well at 37° C. for 1 h incubation. After washing, the wells were developed with TMB substrate for 5-10 min at room temperature and then stopped with 1 N HCl. Thereafter absorbance was measured at 450 nm and 650 nm. EC50 values were calculated through GraphPad Prism7.
The competitor anti-CD36 antibody ONA, which is derived from clone “ONA-0-v1” as disclosed in WO2021176424A1 in hIgG4-S228P-FALA format.
A general note: In an ELISA, binding on a coated surface is turned into a signal by an enzyme label.

Assay [6] addresses T4, Recombinant His-tagged human CD36.ECD …. Briefly: BLI (Octet), antibody on AHC sensor, His-tagged hCD36.ECD in solution, 1:1 fit. As to the method:
BLI assay materials and method: Kinetic rate constants, ka and kd, for binding of the anti-CD36 antibodies to human CD36 were measured by Bio-Layer Interferometry (BLI) (ForteBio Octet RED96). […] Rate constants were calculated by curve fitting analyses (1:1 Langmuir model) of binding response with a 2.5-minute association and 5-minute dissociation interaction time.

Positions count from the first letter of the chain named. Names and notes keep the numbering of the source. Values joined by “and” are separate entries in the source; they are usually repeats but may differ in a detail not shown here. Equal values may be shown once.

T3 sequence (Q08857 whole entry): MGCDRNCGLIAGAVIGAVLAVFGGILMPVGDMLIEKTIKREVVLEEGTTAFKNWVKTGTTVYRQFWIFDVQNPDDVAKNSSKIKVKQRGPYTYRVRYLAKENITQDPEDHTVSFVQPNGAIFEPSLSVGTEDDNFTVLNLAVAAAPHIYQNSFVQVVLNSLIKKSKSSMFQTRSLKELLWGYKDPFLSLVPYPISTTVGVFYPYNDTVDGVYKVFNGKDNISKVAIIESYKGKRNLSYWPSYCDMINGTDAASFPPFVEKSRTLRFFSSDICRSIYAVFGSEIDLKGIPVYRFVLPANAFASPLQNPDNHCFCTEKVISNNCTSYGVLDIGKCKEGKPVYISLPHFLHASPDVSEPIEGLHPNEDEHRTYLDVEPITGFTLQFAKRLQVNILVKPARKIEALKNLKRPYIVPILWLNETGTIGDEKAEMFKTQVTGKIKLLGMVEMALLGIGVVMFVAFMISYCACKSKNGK
T4 sequence (P16671 30-439 limits assumed): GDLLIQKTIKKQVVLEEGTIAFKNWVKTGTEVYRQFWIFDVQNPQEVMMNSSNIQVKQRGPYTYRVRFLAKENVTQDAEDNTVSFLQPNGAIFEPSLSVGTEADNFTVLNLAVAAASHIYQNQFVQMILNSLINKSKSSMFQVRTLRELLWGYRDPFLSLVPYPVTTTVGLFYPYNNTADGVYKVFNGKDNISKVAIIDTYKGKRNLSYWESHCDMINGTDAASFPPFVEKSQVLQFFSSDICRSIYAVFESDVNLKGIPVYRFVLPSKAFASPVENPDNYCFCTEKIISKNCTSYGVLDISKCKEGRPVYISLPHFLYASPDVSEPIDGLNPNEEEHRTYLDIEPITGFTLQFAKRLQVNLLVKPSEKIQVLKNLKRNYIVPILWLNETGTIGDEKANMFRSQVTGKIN
T2 sequence (P16671 2-472): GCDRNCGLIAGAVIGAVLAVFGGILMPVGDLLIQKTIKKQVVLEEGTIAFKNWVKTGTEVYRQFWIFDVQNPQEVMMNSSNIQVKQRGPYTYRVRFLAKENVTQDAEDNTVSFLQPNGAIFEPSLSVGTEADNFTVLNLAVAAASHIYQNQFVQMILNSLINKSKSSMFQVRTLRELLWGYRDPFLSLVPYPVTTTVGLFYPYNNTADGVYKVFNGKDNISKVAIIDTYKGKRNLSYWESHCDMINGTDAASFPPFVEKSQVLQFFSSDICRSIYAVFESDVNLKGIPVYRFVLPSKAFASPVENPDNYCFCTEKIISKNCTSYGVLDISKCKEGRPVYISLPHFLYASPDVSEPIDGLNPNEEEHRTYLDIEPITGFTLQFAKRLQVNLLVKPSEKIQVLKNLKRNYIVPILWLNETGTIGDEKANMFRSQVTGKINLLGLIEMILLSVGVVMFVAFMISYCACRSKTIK
T1 sequence (P16671 other isoform, or with tags, fused parts or gaps): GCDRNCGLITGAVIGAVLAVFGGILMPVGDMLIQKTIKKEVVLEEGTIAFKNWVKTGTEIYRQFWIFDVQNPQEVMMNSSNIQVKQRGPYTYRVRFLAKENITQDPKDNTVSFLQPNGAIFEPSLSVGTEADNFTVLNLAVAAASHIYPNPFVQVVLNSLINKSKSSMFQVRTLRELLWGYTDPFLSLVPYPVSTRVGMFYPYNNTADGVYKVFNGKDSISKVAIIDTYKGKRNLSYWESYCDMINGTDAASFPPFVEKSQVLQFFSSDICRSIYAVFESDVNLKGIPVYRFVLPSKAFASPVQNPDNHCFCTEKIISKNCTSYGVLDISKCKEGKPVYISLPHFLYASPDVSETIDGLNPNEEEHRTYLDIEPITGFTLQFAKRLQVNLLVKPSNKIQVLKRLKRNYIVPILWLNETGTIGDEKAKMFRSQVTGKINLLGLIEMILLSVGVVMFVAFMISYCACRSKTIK

B1: 117 (antibody, V domains shown)
VH: EVQLVESGGGLVQPGGSLRLSCAASGFTISSFGIHWVRQAPGKGLEWVAWIAPYGGYTYYADSVKGRFTISADTSKNTAYLQMNSLRAEDTAVYYCARSFFGYFDYWGQGTLVTVSS
VL: DIQMTQSPSSLSASVGDRVTITCRASQDVSNWVAWYQQKPGKAPKLLISYATSLYSGVPSRFSGSGSGTDFTLTISSLQPEDFATYYCQQHSNAPLTFGQGTKVEIKR
notes: Full-length IgG, human kappa
In the case of B1, the EC50 in assay [1] was 0.886 µg/mL and 0.582 µg/mL; in assay [3], 0.46 µg/mL and 0.361 µg/mL; in assay [4], 0.18 µg/mL and 0.123 µg/mL. The “oxLDL uptake IC50 (nM), F293/hCD36” value in assay [2] is 0.702 nM.

B2: 117_30A (antibody, V domains shown)
VH: B1 VH with S30A
VL: B1 VL
notes: full-length IgG, human kappa
In the case of B2, the EC50 in assay [5] was 0.0964 nM.

B3: 117_28D (antibody, V domains shown)
VH: B1 VH with T28D
VL: B1 VL
notes: full-length IgG, human kappa
As for B3, the EC50 in assay [5] is 0.0735 nM.

B4: 117_30DE (antibody, V domains shown)
VH: B1 VH with S30D, Y57E
VL: B1 VL
notes: full-length IgG, human kappa
Take B4: the EC50 in assay [1] is 0.403 µg/mL; in assay [3] it was 0.342 µg/mL; in assay [4], 0.107 µg/mL. In addition, the “oxLDL uptake IC50 (nM), F293/hCD36” value in assay [2] stood at 0.299 nM.

B5: 117_57DE (antibody, V domains shown)
VH: B1 VH with Y57D, T58E
VL: B1 VL
notes: full-length IgG, human kappa
B5: the EC50 in assay [1] is 0.529 µg/mL; in assay [3] it was 0.447 µg/mL; in assay [4], 0.129 µg/mL.

B6: 117_28A (antibody, V domains shown)
VH: B1 VH with T28A
VL: B1 VL
notes: full-length IgG, human kappa
Take B6: the EC50 in assay [5] stood at 0.129 nM.

B7: 117_57EE (antibody, V domains shown)
VH: B1 VH with Y57E, T58E
VL: B1 VL
notes: full-length IgG, human kappa
Turning to B7, the figures for the EC50 in assay [1], in assay [3] and in assay [4] were 0.407 µg/mL, 0.319 µg/mL and 0.093 µg/mL, respectively. In addition, the “oxLDL uptake IC50 (nM), F293/hCD36” value in assay [2] amounted to 0.348 nM.

B8: 117 (IgG1) (antibody)
heavy: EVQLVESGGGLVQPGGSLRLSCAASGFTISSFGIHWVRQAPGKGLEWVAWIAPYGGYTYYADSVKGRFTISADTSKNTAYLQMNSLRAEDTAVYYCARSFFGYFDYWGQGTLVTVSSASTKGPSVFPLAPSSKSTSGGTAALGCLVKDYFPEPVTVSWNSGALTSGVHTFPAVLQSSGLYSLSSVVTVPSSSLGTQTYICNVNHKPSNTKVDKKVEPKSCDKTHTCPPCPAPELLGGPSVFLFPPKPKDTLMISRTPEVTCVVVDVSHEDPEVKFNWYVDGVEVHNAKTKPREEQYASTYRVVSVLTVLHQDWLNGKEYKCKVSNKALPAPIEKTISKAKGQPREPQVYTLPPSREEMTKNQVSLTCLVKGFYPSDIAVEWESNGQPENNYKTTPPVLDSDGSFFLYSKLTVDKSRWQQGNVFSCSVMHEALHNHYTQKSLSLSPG
light: DIQMTQSPSSLSASVGDRVTITCRASQDVSNWVAWYQQKPGKAPKLLISYATSLYSGVPSRFSGSGSGTDFTLTISSLQPEDFATYYCQQHSNAPLTFGQGTKVEIKRTVAAPSVFIFPPSDEQLKSGTASVVCLLNNFYPREAKVQWKVDNALQSGNSQESVTEQDSKDSTYSLSSTLTLSKADYEKHKVYACEVTHQGLSSPVTKSFNRGEC
notes: Human IgG1-N297A, kappa
B8: in assay [6], the Kd was 4.79 nM and 6.72 nM; the koff is 0.00213 s⁻¹ and 0.00235 s⁻¹; the kon is 445000 M⁻¹ s⁻¹ and 350000 M⁻¹ s⁻¹.

B9: 117 (IgG4) (antibody)
heavy: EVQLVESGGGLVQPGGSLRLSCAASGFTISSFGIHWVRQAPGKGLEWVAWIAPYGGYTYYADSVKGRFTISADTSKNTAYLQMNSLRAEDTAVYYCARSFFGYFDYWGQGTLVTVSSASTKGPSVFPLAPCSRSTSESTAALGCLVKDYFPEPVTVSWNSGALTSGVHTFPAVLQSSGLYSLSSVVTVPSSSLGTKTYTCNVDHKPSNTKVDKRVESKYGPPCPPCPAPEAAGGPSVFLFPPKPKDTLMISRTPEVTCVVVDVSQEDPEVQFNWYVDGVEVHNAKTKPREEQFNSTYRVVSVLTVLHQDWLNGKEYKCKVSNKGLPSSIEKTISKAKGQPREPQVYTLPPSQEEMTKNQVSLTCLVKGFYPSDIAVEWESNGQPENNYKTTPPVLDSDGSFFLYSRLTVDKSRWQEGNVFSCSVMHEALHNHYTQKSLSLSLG
light: B8 light
notes: Human IgG4-S228P/F234A/L235A, kappa
B9: in assay [6], the Kd was 6.49 nM, the koff amounted to 0.0025 s⁻¹ and the kon came out at 386000 M⁻¹ s⁻¹.

B10: 117_DA57D (IgG4) (antibody, V domains shown)
VH: B1 VH with S30D, S31A, Y57D
VL: B1 VL
As for B10, in assay [6], the equilibrium dissociation constant (Kd) amounted to 2.64 nM, the koff amounted to 0.000838 s⁻¹ and the kon is 317000 M⁻¹ s⁻¹.

B11: 117_57E (IgG1) (antibody)
heavy: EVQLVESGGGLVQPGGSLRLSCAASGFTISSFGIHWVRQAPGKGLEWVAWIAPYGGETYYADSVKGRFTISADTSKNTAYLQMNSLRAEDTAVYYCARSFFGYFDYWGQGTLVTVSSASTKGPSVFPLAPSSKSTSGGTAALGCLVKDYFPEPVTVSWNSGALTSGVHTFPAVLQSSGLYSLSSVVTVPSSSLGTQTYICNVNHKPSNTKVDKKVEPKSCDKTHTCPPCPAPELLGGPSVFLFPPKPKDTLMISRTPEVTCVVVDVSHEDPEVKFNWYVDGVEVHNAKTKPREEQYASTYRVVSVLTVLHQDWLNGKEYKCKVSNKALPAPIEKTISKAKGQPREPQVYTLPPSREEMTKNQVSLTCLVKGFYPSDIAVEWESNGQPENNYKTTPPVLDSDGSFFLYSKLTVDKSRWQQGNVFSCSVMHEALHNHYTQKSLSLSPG
light: B8 light
For B11, in assay [6], the Kd turned out to be 4.93 nM, the koff was determined as 0.00182 s⁻¹ and the kon was determined as 370000 M⁻¹ s⁻¹.

B12: 117_30AA (IgG4) (antibody, V domains shown)
VH: B1 VH with S30A, S31A
VL: B1 VL
notes: Human IgG4-S228P-FALA, kappa
For B12, in assay [6], the Kd turned out to be 5.74 nM, the koff worked out at 0.00282 s⁻¹ and the kon was 491000 M⁻¹ s⁻¹.

B13: 117_30DE (IgG4) (antibody, V domains shown)
VH: B1 VH with S30D, Y57E
VL: B1 VL
notes: Human IgG4-S228P-FALA, kappa
Turning to B13, in assay [6], the Kd was 3.09 nM, the koff was found to be 0.000981 s⁻¹ and the kon was 317000 M⁻¹ s⁻¹.

B14: 117_54E (IgG1) (antibody, V domains shown)
VH: B1 VH with Y54E
VL: B1 VL
Turning to B14, in assay [6], the dissociation constant Kd is 4.16 nM, the koff is 0.00407 s⁻¹ and the on-rate (kon) was determined as 978000 M⁻¹ s⁻¹.

B15: 117_57EE (IgG1) (antibody, V domains shown)
VH: B1 VH with Y57E, T58E
VL: B1 VL
With B15, in assay [6], the Kd is 4.27 nM, the koff came out at 0.00155 s⁻¹ and the on-rate constant (kon) is 364000 M⁻¹ s⁻¹.

B16: 117_DA57E (IgG4) (antibody, V domains shown)
VH: B1 VH with S30D, S31A, Y57E
VL: B1 VL
notes: Human IgG4-S228P-FALA, kappa
As for B16, in assay [6], the Kd was 2.52 nM, the koff came to 0.000803 s⁻¹ and the kon stood at 319000 M⁻¹ s⁻¹.

B17: 117_31A (IgG4) (antibody)
heavy: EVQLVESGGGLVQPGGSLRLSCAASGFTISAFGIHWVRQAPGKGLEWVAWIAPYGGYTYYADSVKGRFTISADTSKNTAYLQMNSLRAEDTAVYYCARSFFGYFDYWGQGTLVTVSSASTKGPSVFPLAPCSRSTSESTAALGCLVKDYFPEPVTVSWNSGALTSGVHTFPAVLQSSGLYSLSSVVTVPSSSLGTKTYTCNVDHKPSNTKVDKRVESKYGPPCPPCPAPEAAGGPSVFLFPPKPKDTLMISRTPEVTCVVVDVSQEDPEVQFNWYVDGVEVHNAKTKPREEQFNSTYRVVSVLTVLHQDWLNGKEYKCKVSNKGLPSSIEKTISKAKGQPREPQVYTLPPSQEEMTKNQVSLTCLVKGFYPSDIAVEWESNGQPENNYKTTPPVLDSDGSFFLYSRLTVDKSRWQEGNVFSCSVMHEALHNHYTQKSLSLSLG
light: B8 light
For B17, in assay [6], the Kd came out at 4.32 nM, the koff worked out at 0.00205 s⁻¹ and the kon was determined as 475000 M⁻¹ s⁻¹.

B18: 117_57D (IgG4) (antibody)
heavy: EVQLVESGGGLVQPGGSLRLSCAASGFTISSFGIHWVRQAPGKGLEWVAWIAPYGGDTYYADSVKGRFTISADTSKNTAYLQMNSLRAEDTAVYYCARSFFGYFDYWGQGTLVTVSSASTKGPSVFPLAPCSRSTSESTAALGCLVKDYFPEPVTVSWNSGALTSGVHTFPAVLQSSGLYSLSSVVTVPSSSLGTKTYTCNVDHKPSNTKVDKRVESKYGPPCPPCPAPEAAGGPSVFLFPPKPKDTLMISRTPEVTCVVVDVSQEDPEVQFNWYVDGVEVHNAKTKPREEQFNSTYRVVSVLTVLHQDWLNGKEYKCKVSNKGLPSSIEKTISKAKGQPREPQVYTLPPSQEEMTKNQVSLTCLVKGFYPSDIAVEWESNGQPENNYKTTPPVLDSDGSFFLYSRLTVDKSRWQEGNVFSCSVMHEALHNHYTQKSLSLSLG
light: B8 light
notes: Human IgG4-S228P-FALA, kappa
Consider B18, for which, in assay [6], the Kd came out at 4.96 nM, the koff turned out to be 0.00167 s⁻¹ and the kon amounted to 336000 M⁻¹ s⁻¹.

B19: 117_31A (IgG1) (antibody)
heavy: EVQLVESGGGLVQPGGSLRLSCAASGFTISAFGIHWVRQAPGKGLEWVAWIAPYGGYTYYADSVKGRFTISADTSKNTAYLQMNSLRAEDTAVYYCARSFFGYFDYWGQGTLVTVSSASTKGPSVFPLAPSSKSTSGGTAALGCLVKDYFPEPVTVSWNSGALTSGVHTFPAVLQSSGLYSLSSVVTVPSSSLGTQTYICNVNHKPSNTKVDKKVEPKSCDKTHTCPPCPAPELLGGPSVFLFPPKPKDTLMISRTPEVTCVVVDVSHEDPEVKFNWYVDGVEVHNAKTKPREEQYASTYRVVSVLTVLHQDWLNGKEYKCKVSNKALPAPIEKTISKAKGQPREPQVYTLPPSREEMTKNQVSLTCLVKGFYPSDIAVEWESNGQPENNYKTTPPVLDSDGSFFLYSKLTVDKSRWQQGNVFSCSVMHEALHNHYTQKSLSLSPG
light: B8 light
For the molecule B19, in assay [6], the Kd came to 4.05 nM, the koff was found to be 0.00182 s⁻¹ and the kon was determined as 449000 M⁻¹ s⁻¹.

B20: 117_57D (IgG1) (antibody)
heavy: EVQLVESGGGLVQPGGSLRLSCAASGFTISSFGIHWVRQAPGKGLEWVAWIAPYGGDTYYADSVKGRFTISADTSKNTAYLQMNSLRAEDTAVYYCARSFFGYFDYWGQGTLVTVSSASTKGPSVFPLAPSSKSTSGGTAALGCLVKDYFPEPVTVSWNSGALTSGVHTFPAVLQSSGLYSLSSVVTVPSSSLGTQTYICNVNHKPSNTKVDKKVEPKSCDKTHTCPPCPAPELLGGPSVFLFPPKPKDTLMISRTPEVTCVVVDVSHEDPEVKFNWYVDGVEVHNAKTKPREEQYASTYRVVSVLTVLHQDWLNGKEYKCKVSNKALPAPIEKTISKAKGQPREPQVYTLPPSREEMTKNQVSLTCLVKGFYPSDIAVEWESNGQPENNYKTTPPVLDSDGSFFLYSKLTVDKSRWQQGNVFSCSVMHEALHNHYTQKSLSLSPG
light: B8 light
Consider B20, for which, in assay [6], the Kd stood at 4.69 nM, the koff came out at 0.00175 s⁻¹ and the kon worked out at 373000 M⁻¹ s⁻¹.

B21: 117_30DA (IgG4) (antibody, V domains shown)
VH: B1 VH with S30D, S31A
VL: B1 VL
notes: Human IgG4-S228P-FALA, kappa
As to B21, in assay [6], the Kd was found to be 3.91 nM, the koff amounted to 0.00133 s⁻¹ and the kon came out at 339000 M⁻¹ s⁻¹.

B22: 117_57E (IgG4) (antibody)
heavy: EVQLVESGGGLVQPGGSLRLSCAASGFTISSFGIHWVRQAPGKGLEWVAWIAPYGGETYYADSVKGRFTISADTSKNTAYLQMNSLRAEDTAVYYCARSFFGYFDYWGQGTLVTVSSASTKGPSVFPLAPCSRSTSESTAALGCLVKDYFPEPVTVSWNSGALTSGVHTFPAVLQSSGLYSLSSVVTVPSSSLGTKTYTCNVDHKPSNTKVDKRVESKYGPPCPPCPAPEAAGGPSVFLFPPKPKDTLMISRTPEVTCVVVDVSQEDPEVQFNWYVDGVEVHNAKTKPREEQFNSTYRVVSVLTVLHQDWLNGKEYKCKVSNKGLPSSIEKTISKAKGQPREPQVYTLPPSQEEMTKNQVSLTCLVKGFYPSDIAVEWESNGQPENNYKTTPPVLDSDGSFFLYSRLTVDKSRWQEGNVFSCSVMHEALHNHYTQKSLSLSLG
light: B8 light
notes: Human IgG4-S228P-FALA, kappa
For the molecule B22, in assay [6], the Kd stood at 5.28 nM, the koff is 0.00171 s⁻¹ and the kon is 325000 M⁻¹ s⁻¹.

Values taken from patent US20250206837A1 (ELIXIRON IMMUNOTHERAPEUTICS HONG KONG, published 2025).
